Measurements as given in patent publication US8124332B2, “Methods of using sIP-10, CD26 inhibitors and CXCR3 levels in a sample to assess clearance of infection, response to interferon therapy, and treating chronic infections” (Institut Pasteur, priority 2006, dated 2012).

Tests used:
[1] = test system: CXCR3+ cells; experiment: Lymphocyte chemotaxis assay; format: cell-based, human; conditions: PHA-T blasts, chemokine in bottom chamber, 2 hours at 37° C.
[2] = molecular target: T1, CXCR3 (Homo sapiens, UniProt P49682); experiment: Receptor internalization in primary PBMCs; format: cell-based; set-up: endogenous in cells; host or cells: primary PBMCs
T1 sequence (P49682 1-368): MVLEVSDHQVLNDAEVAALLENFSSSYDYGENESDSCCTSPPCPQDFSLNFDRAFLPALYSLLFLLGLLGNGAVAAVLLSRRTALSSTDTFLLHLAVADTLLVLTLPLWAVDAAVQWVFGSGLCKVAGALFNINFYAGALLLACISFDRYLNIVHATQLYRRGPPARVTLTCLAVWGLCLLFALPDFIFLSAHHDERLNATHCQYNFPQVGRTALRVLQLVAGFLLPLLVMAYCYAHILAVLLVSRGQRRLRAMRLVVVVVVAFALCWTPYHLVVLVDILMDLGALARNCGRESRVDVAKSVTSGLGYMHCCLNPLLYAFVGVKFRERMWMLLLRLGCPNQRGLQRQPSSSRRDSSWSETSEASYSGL
Source text: (§1) In order to test the hypothesis, it was necessary to generate novel reagents. First, recombinant full length CXCL10 (1-77) was exposed to recombinant DPP4 and cleavage was monitored by SELDI mass spectroscopy (FIG. 18A). […] Next, the inventors performed in vitro studies confirming that CXCL10 (1-77) but not CXCL10 (3-77) is capable of: (i) directing the migration of CXCR3^+ cells (FIG. 18B); (ii) mediating receptor internalization in primary PBMCs (not shown); and (iii) triggering a Ca^++ flux in CHO cells transfected with a CXCR3 expressing plasmid (FIGS. 18C, 18D). […] To date, however, there has been no in vivo evidence to support a role for CXCL10 antagonism in disease pathogenesis. In part, the challenge in establishing in vivo evidence of this mechanism of immune regulation is due to the inability to discriminate the two forms of the chemokine by a sensitive, immune-based assay.

[3] = molecular target: T1, CXCR3; experiment: Ca++ flux in CHO cells transfected with a CXCR3 expressing plasmid; format: cell-based; set-up: transfected with a plasmid encoding the full-length open reading frame of CXCR3; expressed in transfected cells; plasmid from Dr. C P Tensen, Leiden
Source text: as §1, with “In part, the challenge in establishing in vivo evidence of this mechanism of immune regulation is due to the inability to discriminate the two forms of the chemokine by a sensitive, immune-based assay.” left out
To generate CXCL10 (3-77), recombinant human CXCL10 (Peprotech, Rocky Hill, N.Y. USA) was incubated with recombinant DPP4 (Sigma) in a 100 mM Tris-HCL pH 8 solution, for 2 h at 37° C. […] Arrays were incubated and washed as per manufacturers instructions and analyzed using the ProteinChip System Series 4000 (Ciphergen). […] Data were analyzed using CiphergenExpress Software. […] Lymphocytes were allowed to migrate for 2 hours at 37° C. and cells in the bottom chamber were counted using a Guava cytometer (Guava Technologies, C A, USA). Calcium-flux assays: Increased intracellular [Ca^2+] in response to CXCR3 signaling were monitored by FACS. […] Ca^++ release was measured using a Canto II Cytometer. […]

[4] = test system: plasma DPP activity (X-prolyl DPP); conditions: plasma of patients with HCV infection

“CXCL10 (1-77): recombinant full length secreted human CXCL10, agonist form” was tested. Which “directing the migration of CXCR3+ cells” value [1] did it give?
Its value is “capable”.

And the mediating receptor internalization [2]?
Its mediating receptor internalization is “capable”.

And the “triggering a Ca++ flux” value ([3]; CHO cells transfected with CXCR3)?
The value was “capable”.

isoleucine-proline-isoleucine [IPI] was tested. Which “inhibition of the enzymatic activity (plasma DPP activity)” value [4] did it give?
Its value is over 98%.

How did the “antagonism of CXCL10 (1-77) induced Ca++ mobilization” value ([3]; 5 min pre-treatment, then CXCL10 (1-77)) turn out when “CXCL10 (3-77): NH2-terminal truncated CXCL10 generated by DPP4 cleavage of two amino acids, antagonist form” was run?
Its value is “antagonized”.
